± gives the uncertainty stated by the source.
Test: amyloid nucleation score (Sup35N fusion, yeast selection) (log enrichment); library NNK3; higher = more nucleation; inactive = no reads after selection
Outline: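 On medium lacking adenine and uracil, psi-negative yeast expressing peptides of 20 random codons fused to Sup35N were grown 7 days at 30°C after a 24-hour induction with 100 μM copper sulfate. Illumina sequencing of input and output plasmid inserts gave the reads, and sequences under 100 input reads were excluded. The nucleation score is the DiMSum log enrichment of output over input reads, centred on the mode score of non-aggregating sequences.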
In the case of NRSFSNGCVIRLELFNNVYA, the amyloid nucleation score is reported as “inactive”.
NRSLEVNELI gave an amyloid nucleation score of -0.412 ± 0.68.
For NRSTGVKSQGIDFLLSCFLV, the amyloid nucleation score was “inactive”.
For NRSTLYSSLCGYRVRENISW, the amyloid nucleation score was 1.4 ± 0.097.
Substance NRTWIGIIHLFGLYYGVCGG has an amyloid nucleation score of 0.621 ± 0.2.
In the case of NRWEFVHLLSYWNKSCDLCC, the amyloid nucleation score is reported as “inactive”.
In the case of NRYHRIIRDAIRKDYTVCSL, the amyloid nucleation score is reported as “inactive”.
For NSASSFCPRRLCYGRRQEDL, the amyloid nucleation score was “inactive”.
With NSDLIRVNRSVMYAKETCEV the amyloid nucleation score was “inactive”.
In the case of NSGLSG, the amyloid nucleation score is reported as “inactive”.
For NSIIGTVDGKSGSNRVRSP, the amyloid nucleation score was “inactive”.
For NSKLRLFWRTGMVHSVVDVS, the amyloid nucleation score was “inactive”.
For NSKNFIMSISRLGYLASF, the amyloid nucleation score was “inactive”.
With NSLNKGKFHWVNIGTSSLQG the amyloid nucleation score was “inactive”.
With NSLWSYMGTVLFNPFWLVWR the amyloid nucleation score was “inactive”.
For NSPTYYPHSFLMTYKALSFT, the amyloid nucleation score was “inactive”.
For NSRHLDIFRMFDNFSVCHQP, the amyloid nucleation score was “inactive”.
For NSSAYFFDAAGSTRLDQASY, the amyloid nucleation score was “inactive”.
In the case of NSSLCYFENLTTAIFVMEWI, the amyloid nucleation score is reported as “inactive”.
In the case of NSTINAPRLTRPGGPCSRKV, the amyloid nucleation score is reported as “inactive”.
In the case of NSWIMYRGGKDDDFVVPWAA, the amyloid nucleation score is reported as “inactive”.
With NTCSLFSKISDNIQRSAHAR the amyloid nucleation score was “inactive”.
In the case of NTFDTVLFRDLVYL, the amyloid nucleation score is reported as “inactive”.
With NTFWLGVRIDGVFGWATNLP the amyloid nucleation score was “inactive”.
In the case of NTHAVLICKCKDCEWNMIGG, the amyloid nucleation score is reported as 0.246 ± 0.66.
For NTLWYIWGG, the amyloid nucleation score was “inactive”.
In the case of NTPLWAFPEVLSDHNFN, the amyloid nucleation score is reported as “inactive”.
NTRRNYNGRYLVLCIRLQLR showed an amyloid nucleation score of 1.81 ± 0.072.
For NTVEPLYCCCSNRCISVSYV, the amyloid nucleation score was “inactive”.
In the case of NVCDRLLDKPHELSFSEKSV, the amyloid nucleation score is reported as “inactive”.
For NVDVTELCTAVTYNDLHGFR, the amyloid nucleation score was “inactive”.
In the case of NVFLMAYRVYACKLRGTGLS, the amyloid nucleation score is reported as “inactive”.
In the case of NVFSFFTTSSEKGLCPPRRS, the amyloid nucleation score is reported as “inactive”.
For NVISV, the amyloid nucleation score was “inactive”.
With NVLQYYNRLGTSRCIRAAFL the amyloid nucleation score was “inactive”.
For NVLVKYVPAALFRSNSLQET, the amyloid nucleation score was “inactive”.
In the case of NVMSLSMWSSLSLWYSGLS, the amyloid nucleation score is reported as “inactive”.
With NVNGSFKI the amyloid nucleation score was “inactive”.
Work on NVNWIRFDFHFVFV yielded an amyloid nucleation score of 2 ± 0.071.
With NVPLKWLTWYNRRAATWVEM the amyloid nucleation score was “inactive”.
For NVQRNVNAE, the amyloid nucleation score was “inactive”.
In the case of NVTNSRHHLQFGYMRAMVNV, the amyloid nucleation score is reported as “inactive”.
With NVTTNRVTKLLAN the amyloid nucleation score was “inactive”.
Work on NVVFSFMVTRCDRLWS yielded an amyloid nucleation score of 0.661 ± 0.27.
For NVVSWGHDLYGKKAPALWEV, the amyloid nucleation score was “inactive”.
In the case of NVVYTFPLYASDMGIGV, the amyloid nucleation score is reported as “inactive”.
NVYIVSIRMFCDYRVTAPKT showed an amyloid nucleation score of 2.35 ± 0.068.
For NVYSPKRVLSGCLSPDISEF, the amyloid nucleation score was “inactive”.
Substance NWGMTNAFFISGKRSGMSSM has an amyloid nucleation score of 0.42 ± 0.38.
NWLCDRVRCCWKLNNNDMKL gave an amyloid nucleation score of -0.22 ± 0.88.
With NWVAKMGFVHGSSKRYSPPK the amyloid nucleation score was 0.111 ± 0.61.
In the case of NYDIASLFTTNKSFV, the amyloid nucleation score is reported as “inactive”.
For NYDIILMLGWSVTFKLKVRF, the amyloid nucleation score was -0.36 ± 1.1.
With NYFCDIFNLSVNSILNYY the amyloid nucleation score was 0.68 ± 0.19.
With NYGAN the amyloid nucleation score was “inactive”.
In the case of NYGPGHRGGSN, the amyloid nucleation score is reported as “inactive”.
For NYICVK, the amyloid nucleation score was “inactive”.
NYIWLFVLYAIVRFSHWLDF gave an amyloid nucleation score of 0.779 ± 0.14.
In the case of NYRRTCTVLSDGYFNYIT, the amyloid nucleation score is reported as “inactive”.
Work on NYTSCNFNVYNSMFFRRYTM yielded an amyloid nucleation score of 3.2 ± 0.053.
In the case of NYVLGGCNLGSSGCRVRLSC, the amyloid nucleation score is reported as “inactive”.
In the case of NYVLRSMSGTRFRALWRVAP, the amyloid nucleation score is reported as “inactive”.
For NYVPQSGYNVDNVLNILTKL, the amyloid nucleation score was “inactive”.
For NYYRC, the amyloid nucleation score was “inactive”.
For PAQLHNTVHL, the amyloid nucleation score was “inactive”.
With PCASLM the amyloid nucleation score was “inactive”.
For PCRMKLVFFRDE, the amyloid nucleation score was “inactive”.
For PCRPGRSRVVHS, the amyloid nucleation score was 0.614 ± 0.27.
PCSGLKCSKGCWCNKICKYK gave an amyloid nucleation score of 1.37 ± 0.13.
For PDEAVGV, the amyloid nucleation score was -1.19 ± 2.5.
For PDGTILMCGRPMCYIVYGAK, the amyloid nucleation score was “inactive”.
In the case of PDLITLIFGSHFGKCSFISY, the amyloid nucleation score is reported as “inactive”.
In the case of PDLLTRILERPGVSECFMQW, the amyloid nucleation score is reported as “inactive”.
With PDLVNISSSPYRRCGYRWVD the amyloid nucleation score was “inactive”.
For PDMSNIQTFWDSRVMGRTR, the amyloid nucleation score was “inactive”.
For PDYEHKVSLLEGKRAYLEHF, the amyloid nucleation score was “inactive”.
In the case of PDYGMSLCHLPTWMW, the amyloid nucleation score is reported as “inactive”.
For PEGPDLTLILAIKPKLSCRG, the amyloid nucleation score was “inactive”.
In the case of PEMSSSGAKAKYPTSMTS, the amyloid nucleation score is reported as “inactive”.
With PEYCKAWLRWKPISVYTQVW the amyloid nucleation score was “inactive”.

Reference: the supplement of paper PMC12042874
